Test results reported in patent US20080020978A1 (Amgen, published 2008).
Bridge positions count the residues as written; N and C are the ends. Square brackets hold non-standard residues; d marks the D form. Oic = O=C(O)[C@@H]1C[C@@H]2CCCC[C@@H]2N1; 1Nal = N[C@@H](Cc1cccc2ccccc12)C(=O)O; hArg = N=C(N)NCCCC[C@H](N)C(=O)O; Tic = O=C(O)[C@@H]1Cc2ccccc2CN1; Cit = NC(=O)NCCC[C@H](N)C(=O)O

B1: SEQ ID NO 945 (peptide)
peptide: Ac-KWVTH[Cit]LAGLLS[Cit]SGGVVRKNFVPTDVGPKAF-NH2
SMILES: CC(=O)N[C@@H](CCCCN)C(=O)N[C@@H](Cc1c[nH]c2ccccc12)C(=O)N[C@H](C(=O)N[C@H](C(=O)N[C@@H](Cc1c[nH]cn1)C(=O)N[C@@H](CCCNC(N)=O)C(=O)N[C@@H](CC(C)C)C(=O)N[C@@H](C)C(=O)NCC(=O)N[C@@H](CC(C)C)C(=O)N[C@@H](CC(C)C)C(=O)N[C@@H](CO)C(=O)N[C@@H](CCCNC(N)=O)C(=O)N[C@@H](CO)C(=O)NCC(=O)NCC(=O)N[C@H](C(=O)N[C@H](C(=O)N[C@@H](CCCNC(=N)N)C(=O)N[C@@H](CCCCN)C(=O)N[C@@H](CC(N)=O)C(=O)N[C@@H](Cc1ccccc1)C(=O)N[C@H](C(=O)N1CCC[C@H]1C(=O)N[C@H](C(=O)N[C@@H](CC(=O)O)C(=O)N[C@H](C(=O)NCC(=O)N1CCC[C@H]1C(=O)N[C@@H](CCCCN)C(=O)N[C@@H](C)C(=O)N[C@@H](Cc1ccccc1)C(N)=O)C(C)C)[C@@H](C)O)C(C)C)C(C)C)C(C)C)[C@@H](C)O)C(C)C
B2: SEQ ID NO 944 (peptide)
peptide: Ac-WVTH[Cit]LAGELS[hArg]KGGVV[hArg]KNFVPTDVG[Oic][1Nal]AF-NH2
modifications: lactam 9-13
SMILES: CC(=O)N[C@@H](Cc1c[nH]c2ccccc12)C(=O)N[C@H](C(=O)N[C@H](C(=O)N[C@@H](Cc1c[nH]cn1)C(=O)N[C@@H](CCCNC(N)=O)C(=O)N[C@@H](CC(C)C)C(=O)N[C@@H](C)C(=O)NCC(=O)N[C@H]1CCC(=O)NCCCC[C@@H](C(=O)NCC(=O)NCC(=O)N[C@H](C(=O)N[C@H](C(=O)N[C@@H](CCCCNC(=N)N)C(=O)N[C@@H](CCCCN)C(=O)N[C@@H](CC(N)=O)C(=O)N[C@@H](Cc2ccccc2)C(=O)N[C@H](C(=O)N2CCC[C@H]2C(=O)N[C@H](C(=O)N[C@@H](CC(=O)O)C(=O)N[C@H](C(=O)NCC(=O)N2[C@H](C(=O)N[C@@H](Cc3cccc4ccccc34)C(=O)N[C@@H](C)C(=O)N[C@@H](Cc3ccccc3)C(N)=O)C[C@@H]3CCCC[C@@H]32)C(C)C)[C@@H](C)O)C(C)C)C(C)C)C(C)C)NC(=O)[C@H](CCCCNC(=N)N)NC(=O)[C@H](CO)NC(=O)[C@H](CC(C)C)NC1=O)[C@@H](C)O)C(C)C
B3: SEQ ID NO 942 (peptide)
peptide: Ac-WVTH[hArg]LEGLLK[Cit]SGGVV[hArg]KNFVPTDVG[Oic]FAF-NH2
modifications: lactam (positions not given here); not fully specified; printed as Ac-WVTH[hArg]LEGLLK[Cit]SGGVV[hArg]KNFVPTDVG[Oic]FAF-NH2
B4: PEG-peptide of SEQ ID NO 861 (peptide)
peptide: WVTHXLAGLLSRSGGVVRKNFVPTDVGPFAF
modifications: Ac-WVTH[Cit]LAGLLSRSGGVVRKNFVPTDVGPFAF-NH2; PEG-conjugated (Table 2C: in most cases at Lys^25)

target: CGRP1 receptor (CRLR/RAMP1 complex) of human neuroblastoma SK-N-MC cells (human, UniProt Q16602 23-461; O60894 27-148); experiment: cell-based or functional assay
Sequence (Q16602 23-461, chain 1 of 2): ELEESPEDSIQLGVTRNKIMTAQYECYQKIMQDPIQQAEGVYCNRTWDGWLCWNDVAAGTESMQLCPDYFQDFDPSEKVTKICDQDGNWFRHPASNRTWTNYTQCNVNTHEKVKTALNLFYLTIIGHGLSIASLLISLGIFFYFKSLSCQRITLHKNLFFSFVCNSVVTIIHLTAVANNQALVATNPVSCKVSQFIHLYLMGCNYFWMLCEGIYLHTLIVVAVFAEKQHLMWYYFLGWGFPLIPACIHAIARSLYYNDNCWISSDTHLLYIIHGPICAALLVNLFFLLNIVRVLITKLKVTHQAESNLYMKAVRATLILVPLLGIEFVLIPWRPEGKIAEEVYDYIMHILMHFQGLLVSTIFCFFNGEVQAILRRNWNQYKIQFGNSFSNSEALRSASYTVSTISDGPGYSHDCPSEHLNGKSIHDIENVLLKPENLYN
Sequence (O60894 27-148, chain 2 of 2): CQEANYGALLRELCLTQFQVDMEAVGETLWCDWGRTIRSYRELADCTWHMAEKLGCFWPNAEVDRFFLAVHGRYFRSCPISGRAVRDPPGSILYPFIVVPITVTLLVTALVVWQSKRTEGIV

Question: Ac-WVTH[Cit]LAGLLS[Cit]SGGVVRKNFVPTDVG[Tic]FAF-NH2 [SEQ ID NO 956] was tested. Which “Peptide IC50” value did it give?
Answer: 3.02 nM

Question: For Ac-WVTHRLAGLLPRSGGVVRKNFVPTDVGPFAF-NH2 [SEQ ID NO 858], which “Peptide IC50” value is on record?
Answer: 1.3 nM

Question: How did the “Peptide IC50” value turn out when B1 was run?
Answer: 13 nM

Question: Which “PEG-peptide IC50” value does the source give for Ac-WVTHRLAGLASRPGGVVRKNFVPTDVGPFAF-NH2 (also: PEG-conjugated, in most cases at Lys25) [PEG-peptide of SEQ ID NO 859] here?
Answer: 60.5 nM

Question: For Ac-WVTHRLAGLLPRSGGVVRKNFVPTDVGPFAF-NH2 (also: PEG-conjugated, in most cases at Lys25) [PEG-peptide of SEQ ID NO 858], which “PEG-peptide IC50” value is on record?
Answer: 5 nM

Question: How did the “Peptide IC50” value turn out when Ac-WVTHRLAGLASRPGGVVRKNFVPTDVGPFAF-NH2 [SEQ ID NO 859] was run?
Answer: 1.41 nM

Question: With Ac-WVTHQLAGLLSQSGGVVRKNFVPTDVGPFAF-NH2 [SEQ ID NO 857] as the binder, how does the “Peptide IC50” value read?
Answer: 0.53 nM

Question: With B2 as the binder, how does the “Peptide IC50” value read?
Answer: 0.85 nM

Question: With Ac-WVTHRLAGLLSRPGGVVRKNFVPTDVGPFAF-NH2 (also: PEG-conjugated, in most cases at Lys25) [PEG-peptide of SEQ ID NO 860] as the binder, how does the “PEG-peptide IC50” value read?
Answer: 16.7 nM

Question: With Ac-WVTHRLAGLLSQSGGVVRKNFVPTDVGPFAF-NH2 (also: PEG-conjugated, in most cases at Lys25) [PEG-peptide of SEQ ID NO 856] as the binder, how does the “PEG-peptide IC50” value read?
Answer: 0.46 nM

Question: Ac-WVTHRLAGLLSRPGGVVRKNFVPTDVGPFAF-NH2 [SEQ ID NO 860] was tested. Which “Peptide IC50” value did it give?
Answer: 1.42 nM

Question: Which “Peptide IC50” value does the source give for Ac-WVTH[Cit]LAGLLS[Cit]SGGVVRKNFVPTDVG[Tic]FAF-NH2 [SEQ ID NO 957] here?
Answer: 4.32 nM

Question: Ac-WVTHQLAGLLSQSGGVVRKNFVPTDVGPFAF-NH2 (also: PEG-conjugated, in most cases at Lys25) [PEG-peptide of SEQ ID NO 857] was tested. Which “PEG-peptide IC50” value did it give?
Answer: 6.21 nM

Question: With B3 as the binder, how does the “Peptide IC50” value read?
Answer: 0.83 nM

Question: For WVTHXLAGLLSXSGGVVXKNFVPTDVGPXAF (Ac-WVTH[Cit]LAGLLS[Cit]SGGVV[hArg]KNFVPTDVGP[Tic]AF-NH2) [SEQ ID NO 947], which “Peptide IC50” value is on record?
Answer: 89.9 nM

Question: For WVTHXLAGLLSXSGGVVXKNFVXTDVGPFAX (Ac-WVTH[Cit]LAGLLS[Cit]SGGVV[hArg]KNFV[Oic]TDVGPFA[2-Nal]-NH2) [SEQ ID NO 951], which “Peptide IC50” value is on record?
Answer: 3.22 nM

Question: WVTHXLAGLLSXSGGVVXKNFVPTDVGPXAF (Ac-WVTH[Cit]LAGLLS[Cit]SGGVV[hArg]KNFVPTDVGP[1-Nal]AF-NH2) [SEQ ID NO 960] was tested. Which “Peptide IC50” value did it give?
Answer: 2.24 nM

Question: How did the “Peptide IC50” value turn out when WVTHXLAGLLSRSGGVVRKNFVPTDVGPFAF (Ac-WVTH[Cit]LAGLLSRSGGVVRKNFVPTDVGPFAF-NH2) [SEQ ID NO 861] was run?
Answer: 0.57 nM

Question: How did the “Peptide IC50” value turn out when WVTHXLAGLLSXSGGVVXKNXVXTDVGPXAF (Ac-WVTH[Cit]LAGLLS[Cit]SGGVV[hArg]KN[pI-Phe]V[Oic]TDVGP[pI-Phe]AF-NH2) [SEQ ID NO 952] was run?
Answer: 2.34 nM

Question: How did the “PEG-peptide IC50” value turn out when B4 was run?
Answer: 2.08 nM

Question: How did the “Peptide IC50” value turn out when WVTHXLAGLLSXSGGVVRKNFVPTDVGPXAF (Ac-WVTH[Cit]LAGLLS[Cit]SGGVVRKNFVPTDVGP[Tic]AF-NH2) [SEQ ID NO 962] was run?
Answer: 10.1 nM

Question: Which “Peptide IC50” value does the source give for WVTHXLAGLLSXSGGVVXKNFVXTDVGPXAX (Ac-WVTH[Cit]LAGLLS[Cit]SGGVV[hArg]KNFV[Oic]TDVGP[1-Nal]A[2-Nal]-NH2) [SEQ ID NO 949] here?
Answer: 2.73 nM

Question: WVTHXLAGLLSXSGGVVXKNFVXTDVGPXAF (Ac-WVTH[Cit]LAGLLS[Cit]SGGVV[hArg]KNFV[Oic]TDVGP[Bip]AF-NH2) [SEQ ID NO 950] was tested. Which “Peptide IC50” value did it give?
Answer: 3.85 nM

Question: Which “Peptide IC50” value does the source give for WVTHXLAGLLSXSGGVVXKNFVXTDVGXFAX (Ac-WVTH[Cit]LAGLLS[Cit]SGGVV[hArg]KNFV[Oic]TDVG[Oic]FA[2-Nal]-NH2) [SEQ ID NO 948] here?
Answer: 2.57 nM

Question: For WVTHXLAGLLSXSGGVVXKNXVPTDVGXFAX (Ac-WVTH[Cit]LAGLLS[Cit]SGGVV[hArg]KN[2-Nal]VPTDVG[Oic]FA[2-Nal]-NH2) [SEQ ID NO 954], which “Peptide IC50” value is on record?
Answer: 3.45 nM

Question: Which “Peptide IC50” value does the source give for WVTHXLAGLLSXSGGVVXKNXVXTDVGXFAX (Ac-WVTH[Cit]LAGLLS[Cit]SGGVV[hArg]KN[2-Nal]V[Oic]TDVG[Oic]FA[2-Nal]-NH2) [SEQ ID NO 955] here?
Answer: 3.57 nM

Question: Which “Peptide IC50” value does the source give for Ac-WVTH[Cit]LAGELS[Cit]KGGVV[hArg]KNFVPTDVG[Oic]FAF-NH2 [SEQ ID NO 943] here?
Answer: 1.45 nM

Question: Ac-WVTHRLAGLLSQSGGVVRKNFVPTDVGPFAF-NH2 [SEQ ID NO 856] was tested. Which “Peptide IC50” value did it give?
Answer: 0.47 nM
